Source: US20210340232A1, “MONOCLONAL ANTIBODIES AGAINST HUMAN DICKKOPF3 AND USES THEREOF” (Board of Regents, The University of Texas System, priority 2018, published 2021)
Entries after “also recorded” stand apart in the source; their conditions may differ.

What was measured:
MPSCs = assay: Proliferation of mouse PSCs by MTS assay at 7 days; format: cell-based
Procedure: FIGS. 12A-D. DKK3 expression in mouse PSCs and effects of treatment with DKKC mAb on survival. (FIG. 12A) Western blot analysis of recombinant human and mouse DKK3 under denaturing and non-denaturing conditions using JM6-6-1 mAb. (FIG. 12B) Expression of murine DKK3 in murine PSCs (MPSC) or 3T3 cells was determined by RT-PCR. 18S was used as loading control. (FIG. 12C) Proliferation of MPSCs treated with DKK3 mAb was measured at 7 days by MTS assay. ***p<0.001 vs. PBS. (FIG. 12D) Pdx1-Cre; Kras LSL-G12D;Trp53fl/+ model of PDAC was treated with DKK3 mAb JM6-6-1 or control mAb JM4-74 (5 mg/kg i.p. q5d). Kaplan-Meier survival curves are shown (log rank test). At 0% survival, the right line is JM6-6-1, the middle lines is PBS, and the left line is Control Ab.
Cell-based assays. Cell proliferation was measured by the MTS assay (Promega, Madison, Wis.). Cell migration and invasion studies with stimulation by recombinant human DKK3 (R&D, Minneapolis, Minn.) were performed using 6.5-mm Transwell® with 8.0-μm pore membrane Insert (Corning Incorporated) and BioCoat Matrigel-coated invasion chambers (BD Biosciences, Bedford, Mass.).

BxPC3 cells = assay: BxPC3 Transwell migration in response to rhDKK3; format: cell-based, human; settings: BxPC3, rhDKK3 10 μg/ml, 48 hours
Procedure: HPSCs and BxPC3 cells were treated with DKK3 mAb clones JM6-6-1 and JM8-12-1 or isotype control mAb or PBS. (FIGS. 5A-B) HPSC apoptosis and migration as measured by FACS and Transwell migration assay at 48 hours. (FIG. 5C) BxPC3 migration in response to rhDKK3 10 μg/ml as measured by Transwell migration assay at 48 hours. (FIG. 5D) BxPC3 resistance to gemcitabine 100 μM as measured by MTS proliferation assay at 6 days. HPSC-CM, pancreatic stellate cell conditioned media, 10 μg/ml. The orthotopic co-injection BxPC3+ HPSC model of PDAC was used to test the efficacy of DKK3 mAb clones JM6-6-1 or JM8-12-1 (5 mg/kg i.p. once every 5 days). (FIG. 5E) Overall tumor progression was measured every 3-4 days by IVIS imaging. (FIG. 5F) Metastatic tumors in the peritoneal cavity after removal of the primary pancreatic tumor are shown by IVIS imaging. (FIG. 5G) Kaplan Meier survival curve showing mice treated with DKK3 mAb clone JM8-12 (right-most line), control mAb (middle line), or PBS (left-most line). (FIG. 5H) KPC mice (P48-Cre; Kras LSL-G12D;Trp53fl/fl) with either wild type DKK3 (solid lines) or deficient in DKK3 (“DKK3-KO,” dashed lines) were treated with DKK3 mAb JM6-6-1 (5 mg/kg i.p. once every 5 days), PBS or control mAb. […]
Cell-based assays. Cell proliferation was measured by the MTS assay (Promega, Madison, Wis.). […]

4T1 TNBC cells = assay: 4T1 orthotopic mouse model of TNBC; format: in vivo
Procedure: (FIG. 13A) DKK3 expression was measured by RT-PCR in TNBC fibroblasts (BCF), human pancreatic stellate cells (HPSC) from pancreatic adenocarcinoma (PDAC), BxPC (PDAC cancer cell) and water control. (FIG. 13B) DKK3 protein was measured by Western blotting in BCF from TNBC, in ER-positive breast cancer cells, and in TNBC cancer cell lines. (FIG. 13C) DKK3 protein was measured in patient-derived xenograft (PDX) tumors from TNBC relative to recombinant human DKK3 (rhDKK3) and conditioned medium from HPSC (HPSC-CM). Actin was used as loading control. […] Data is pooled from TCGA, EGA and GEO.
FIGS. 14A-C. Treatment of TNBC orthotopic model with DKK3 mAb. […] Tumor growth was measured by calipers at day 33 after starting treatment and compared to initial tumor size prior to treatment. (FIG. 14B) 4T1 primary tumors and metastases were imaged using IVIS at day 33 after starting treatment. (FIG. 14C) Luciferase signal from 4T1 metastases was measured by IVIS at day 33 after starting treatment.
Treatment of TNBC orthotopic models with DKK3 mAb was also tested. An orthotopic model using 4T1 TNBC cells labeled with firefly luciferase was treated with PBS, a control antibody, or JM6-6-1. […] The mice were also imaged to detect the primary tumors and any metastases (FIG. 14B).

B1: JM6-6-1: monoclonal antibody against human DKK3; heavy chain variable SEQ ID NO: 19, light chain variable SEQ ID NO: 20 (antibody, V domains shown)
VH: EVKLVESGGGLVKPGGSLKLSCAASGFTFTIEYMAWIRQTPEKRLEWVASISSGGDDIYYADNVKGRFTISRDNAKNTLYLQMSSLKSEDTAIYYCSRSLSDWGQGTTLTVSSAKTTPPSDYPLA
VL: MTQTPLSLPVSLGDQASISCRSSQSILHSNGHTYLEWYLQKPGQSPKLLIYKVSNRFSGVPDRFSGSGSGTDFTLKISRVEAEDLGVYYCFQGSHVPFTFGSGTKLEIERADAAQ
proliferation of mouse PSCs (MPSCs): inhibited proliferation
effect on DKK3-mediated induction of migration (BxPC3 cells): reverse the DKK3-mediated induction of migration
luciferase signal from 4T1 metastases (4T1 TNBC cells; 5 mg/kg ip q5 days, IVIS day 33): prevented metastases
tumor size at day 33 after starting treatment compared to controls (4T1 TNBC cells; 5 mg/kg ip q5 days, calipers): significantly smaller
survival relative to control antibody and PBS (4T1 TNBC cells; 4T1 mouse model of TNBC): improved survival; also recorded: increased survival
